From paper PMC3365889

Key:
[1] = target: T1, human synaptogyrin 1, transcript variant 1b, construct 5 (N-terminal His tag with TEV cleavage site) (human), O43759; experiment: SDS-PAGE (SDS-resistant dimer); SDS-PAGE of fractions from the large-scale IMAC purification in DDM
T1 chain: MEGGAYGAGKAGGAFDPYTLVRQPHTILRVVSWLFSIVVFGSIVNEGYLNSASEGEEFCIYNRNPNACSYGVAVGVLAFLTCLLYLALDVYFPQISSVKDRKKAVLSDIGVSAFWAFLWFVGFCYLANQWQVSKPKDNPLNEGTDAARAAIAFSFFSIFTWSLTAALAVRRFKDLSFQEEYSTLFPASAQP

[2] = target: T1, human synaptogyrin 1, transcript …; experiment: cross-linking; crude E. coli membranes, 2 mM DMS, room temperature, quenched with 200 mM Tris at time points; SDS-PAGE and Western blot with His probe
[3] = target: T1, human synaptogyrin 1, transcript …; experiment: cross-linking; DDM-solubilised and purified synaptogyrin 1, 0.25 mM DSS, room temperature, quenched with 200 mM Tris at time points; SDS-PAGE and Western blot with His probe
[4] = target: T1, human synaptogyrin 1, transcript …; experiment: cross-linking; Triton X-100-solubilised and purified synaptogyrin 1, 1 mM glutaraldehyde, room temperature, quenched with 200 mM Tris at time points; SDS-PAGE and Western blot with His probe

stoichiometry N [1]: 2 | stoichiometry N [2]: > 4 | stoichiometry N [3]: > 4 | stoichiometry N [4]: > 4
B1: human synaptogyrin 1, transcript variant 1b, construct 5 (N-terminal His tag with TEV cleavage site), O43759-2 1-191 (natural protein)
chain: T1 chain
